Assay results reported in publication PMC5693252.
Where two headings read alike, the source gives them in different places.

Columns and labels:
Assay in all cases: native MS
AKAP79(297-427) = AKAP79(297-427) (UniProt P24588)
[1] = molecular target: protein kinase A regulatory type II (RII) subunit (UniProt P12367)
[2] = molecular target: protein kinase A regulatory type II (RII) subunit (UniProt P12367); remark: listed apart in the source

Sequence of UniProt P24588 (P24588 297-427): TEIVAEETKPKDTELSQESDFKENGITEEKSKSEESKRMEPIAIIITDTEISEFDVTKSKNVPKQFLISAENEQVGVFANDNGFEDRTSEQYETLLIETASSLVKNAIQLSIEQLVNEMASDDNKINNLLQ

protein kinase A regulatory type II (RII) subunit (from UniProt P12367 1-401) (natural protein)
2: stoichiometry N (RII chains per AKAP79(297-427)) (AKAP79(297-427)) | stoichiometry N (RII chains in the oligomer) [1] | stoichiometry N (RII chains in the oligomer) [2]
